# Results reported in publication PMC9536601, “Binding of adenovirus species C hexon to prothrombin and the influence of hexon on vector properties in vitro and in vivo” (PLoS Pathogens, 2022).
# What was measured:
# Settings in all cases: both partners purified
# [1] = target: T1, hexon of Ad5.5 (Ad5 vector, hexon HVR7 VINTDTL), on the virion (human adenovirus type 5, UniProt P04133 2-952, VINTETL to VINTDTL (HVR7; position worked out from the printed T425A)); assay: SPR; Biacore T200; about 300 to 5,000 RU of Ad virions immobilised on a CM5 chip, coagulation factors flowed over at four concentrations, 50 uL/min; 10 mM HEPES, 150 mM NaCl, 1 mM CaCl2, 0.5 mM MgCl2, 0.1% BSA, 0.05% polysorbate 20, pH 7.4; global fit to a 1:1 kinetic interaction model, double referencing
# T1 construct: hexon of human adenovirus type 5, whole as in the capsid of the virion; HVR7 segment changed; The whole virion was immobilised; source: 293 cells, virions purified by CsCl ultracentrifugation
# [2] = target: T2, hexon of Ad5.0 (E1/E3-deleted Ad5 vector with wild-type Ad5 capsid), on the virion (human adenovirus type 5, UniProt P04133 2-952); assay: as above
# T2 construct: hexon of human adenovirus type 5, whole as in the capsid of the virion; HVR7 segment VINTETL; The whole virion was immobilised; The other capsid proteins are not written; also called VINTETL; source: 293 cells, virions purified by CsCl ultracentrifugation
# [3] = target: T3, hexon of Ad5.4 (Ad5 vector, hexon HVR7 VINTATL), on the virion (human adenovirus type 5, UniProt P04133 2-952, VINTETL to VINTATL (HVR7; position worked out from the printed T425A)); assay: as above
# T3 construct: hexon of human adenovirus type 5, whole as in the capsid of the virion; HVR7 segment changed; The whole virion was immobilised; source: 293 cells, virions purified by CsCl ultracentrifugation
# [4] = target: T4, hexon of Ad5.6 (Ad5 vector, hexon HVR7 VIRTDTL), on the virion (human adenovirus type 5, UniProt P04133 2-952, VINTETL to VIRTDTL (HVR7; position worked out from the printed T425A)); assay: as above
# T4 construct: hexon of human adenovirus type 5, whole as in the capsid of the virion; HVR7 segment changed; The whole virion was immobilised; source: 293 cells, virions purified by CsCl ultracentrifugation
# [5] = target: T5, mouse coagulation factor X (mouse, UniProt O88947 41-481, gamma-carboxylated glutamate residues in the Gla domain); assay: SPR; Biacore T200; about 300 to 5,000 RU of Ad virions immobilised on a CM5 chip, coagulation factors flowed over at four concentrations, 50 uL/min; running buffer 10 mM HEPES, 150 mM NaCl, 1 mM CaCl2, 0.5 mM MgCl2, 0.1% BSA, 0.05% polysorbate 20, pH 7.4; regeneration with 3 mM EDTA; global fit to a 1:1 kinetic interaction model, double referencing
# T5 construct: coagulation factor X, mouse, plasma-derived; Pretreated with 125 uM GGACK (EGRCK); written here as one entry; also called mouse FX; source: bought: Haematologic Technologies, Inc. (MCX-5050), plasma-derived
# [6] = target: T6, human prothrombin (coagulation factor II) (human, UniProt P00734 44-622, gamma-carboxylated glutamate residues in the Gla domain); assay: as above
# T6 construct: prothrombin (FII), human, plasma-derived; also called human FII; FII; source: bought: Haematologic Technologies, Inc. (HCP-0010), plasma-derived
# [7] = target: T7, mouse prothrombin (coagulation factor II) (mouse, UniProt P19221 44-618, gamma-carboxylated glutamate residues in the Gla domain); assay: as above
# T7 construct: prothrombin (FII), mouse, plasma-derived; also called mouse FII
# T7 sequence (P19221 44-618): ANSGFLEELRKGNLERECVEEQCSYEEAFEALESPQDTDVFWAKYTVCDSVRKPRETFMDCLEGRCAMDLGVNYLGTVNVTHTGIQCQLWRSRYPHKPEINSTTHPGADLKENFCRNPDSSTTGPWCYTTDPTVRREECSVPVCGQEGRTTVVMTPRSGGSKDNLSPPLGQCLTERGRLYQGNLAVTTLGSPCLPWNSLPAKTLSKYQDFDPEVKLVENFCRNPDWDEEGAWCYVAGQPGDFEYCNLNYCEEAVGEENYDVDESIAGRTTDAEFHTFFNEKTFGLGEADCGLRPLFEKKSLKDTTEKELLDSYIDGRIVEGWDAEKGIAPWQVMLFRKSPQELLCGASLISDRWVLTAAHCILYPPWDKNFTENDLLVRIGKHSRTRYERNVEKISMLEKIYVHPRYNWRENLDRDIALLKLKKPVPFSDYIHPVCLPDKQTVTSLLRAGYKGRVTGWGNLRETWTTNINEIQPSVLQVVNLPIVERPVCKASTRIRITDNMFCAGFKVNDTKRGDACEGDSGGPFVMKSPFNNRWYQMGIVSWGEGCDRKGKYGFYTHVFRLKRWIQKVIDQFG
# [8] = target: T8, human coagulation factor X (human, UniProt P00742 41-488, gamma-carboxylated glutamate residues in the Gla domain); assay: as above
# T8 construct: coagulation factor X, human, plasma-derived; written here as one entry; also called human FX; FX; source: bought: Haematologic Technologies, Inc. (HCX-0050), plasma-derived
# [9] = target: T9, bovine coagulation factor X (bovine, UniProt P00743 41-492, gamma-carboxylated glutamate residues in the Gla domain); assay: as above
# T9 construct: coagulation factor X, bovine, plasma-derived; Pretreated with 125 uM GGACK (EGRCK); written here as one entry; also called bovine FX; source: bought: Haematologic Technologies, Inc. (BCX-1050), plasma-derived
# [10] = target: T10, bovine prothrombin (coagulation factor II) (bovine, UniProt P00735 44-625, gamma-carboxylated glutamate residues in the Gla domain); assay: as above
# T10 construct: prothrombin (FII), bovine, plasma-derived; also called bovine FII; source: bought: Haematologic Technologies, Inc. (BCP-1010), plasma-derived
# T10 sequence (P00735 44-625): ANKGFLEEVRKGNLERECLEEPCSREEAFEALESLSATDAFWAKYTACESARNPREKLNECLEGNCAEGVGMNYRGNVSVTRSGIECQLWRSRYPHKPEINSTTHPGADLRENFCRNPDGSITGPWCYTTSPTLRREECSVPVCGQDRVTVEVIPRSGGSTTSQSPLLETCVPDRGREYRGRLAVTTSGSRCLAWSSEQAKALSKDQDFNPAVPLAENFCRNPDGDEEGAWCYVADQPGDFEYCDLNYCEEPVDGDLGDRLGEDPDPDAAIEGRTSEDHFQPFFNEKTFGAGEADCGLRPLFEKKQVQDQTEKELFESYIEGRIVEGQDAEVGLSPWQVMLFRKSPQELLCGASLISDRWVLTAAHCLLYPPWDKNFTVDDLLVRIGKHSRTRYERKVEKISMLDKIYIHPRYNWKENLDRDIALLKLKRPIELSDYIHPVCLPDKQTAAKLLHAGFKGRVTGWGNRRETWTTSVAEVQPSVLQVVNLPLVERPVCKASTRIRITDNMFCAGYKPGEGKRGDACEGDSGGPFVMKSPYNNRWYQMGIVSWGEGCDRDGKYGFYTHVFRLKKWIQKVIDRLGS
binder,measurement,setting,value
"bovine coagulation factor X (natural protein, UniProt P00743 41-492, looked up, γ-carboxylated glutamate residues in the Gla domain (positions not given), coagulation factor X, bovine, plasma-derived; also called Bovine FX; source: bought: Haematologic Technologies, Inc. (BCX-1050), plasma-derived; pretreated with GGACK, dialyzed) ANSFLEEVKQGNLERECLEEACSLEEAREVFEDAEQTDEFWSKYKDGDQCEGHPCLNQGHCKDGIGDYTCTCAEGFEGKNCEFSTREICSLDNGGCDQFCREERSEVRCSCAHGYVLGDDSKSCVSTERFPCGKFTQGRSRRWAIHTSEDALDASELEHYDPADLSPTESSLDLLGLNRTEPSAGEDGSQVVRIVGGRDCAEGECPWQALLVNEENEGFCGGTILNEFYVLTAAHCLHQAKRFTVRVGDRNTEQEEGNEMAHEVEMTVKHSRFVKETYDFDIAVLRLKTPIRFRRNVAPACLPEKDWAEATLMTQKTGIVSGFGRTHEKGRLSSTLKMLEVPYVDRSTCKLSSSFTITPNMFCAGYDTQPEDACQGDSGGPHVTRFKDTYFVTGIVSWGEGCARKGKFGVYTKVSNFLKWIDKIMKARAGAAGSRGHSEAPATWTVPPPLPL",Kd,[1],438 nM
same,Kd,[2],270 nM
same,Kd,[3],540 nM
same,Kd,[4],1620 nM
"mouse coagulation factor X (natural protein, UniProt O88947 41-481, looked up, γ-carboxylated glutamate residues in the Gla domain (positions not given), coagulation factor X, mouse, plasma-derived; also called Mouse FX; source: bought: Haematologic Technologies, Inc. (MCX-5050), plasma-derived; pretreated with GGACK, dialyzed) ANSFFEEFKKGNLERECMEEICSYEEVREIFEDDEKTKEYWTKYKDGDQCESSPCQNQGACRDGIGGYTCTCSEGFEGKNCELFVRKLCRLDNGDCDQFCREEQNSVVCSCASGYFLGNDGKSCISTAPFPCGKITTGRRKRSVALNTSDSELDLEDALLDEDFLSPTENPIELLNLNETQPERSSDDLVRIVGGRECKDGECPWQALLINEDNEGFCGGTILNEFYILTAAHCLHQARRFKVRVGDRNTEKEEGNEMVHEVDVVIKHNKFQRDTYDYDIAVLRLKTPITFRMNVAPACLPQKDWAESTLMTQKTGIVSGFGRTHEKGRQSNILKMLEVPYVDRNTCKLSTSFSITQNMFCAGYEAKLEDACQGDSGGPHVTRFKNTYYVTGIVSWGEGCARKGKYGIYTKVTTFLKWIDRSMKARVGPTAETPRTAGPPN",Kd,[1],2.5 nM
same,Kd,[2],0.32 nM
same,Kd,[3],1.9 nM
same,Kd,[4],0.37 nM
"mouse prothrombin (coagulation factor II) (natural protein, γ-carboxylated glutamate residues in the Gla domain (positions not given), prothrombin (FII), mouse, plasma-derived; also called Mouse FII; source: dialyzed) not shown",Kd,[1],216 nM
same,Kd,[2],2000 nM
same,Kd,[3],36000 nM
same,Kd,[4],420 nM
hexon of wild-type human adenovirus type 6 (on virions) (natural protein) ATPSMMPQWSYMHISGQDASEYLSPGLVQFARATETYFSLNNKFRNPTVAPTHDVTTDRSQRLTLRFIPVDREDTAYSYKARFTLAVGDNRVLDMASTYFDIRGVLDRGPTFKPYSGTAYNALAPKGAPNSCEWEQNETAQVDAQELDEEENEANEAQAREQEQAKKTHVYAQAPLSGIKITKEGLQIGTADATVAGAGKEIFADKTFQPEPQVGESQWNEADATAAGGRVLKKTTPMKPCYGSYARPTNSNGGQGVMVEQNGKLESQVEMQFFSTSTNATNEVNNIQPTVVLYSEDVNMETPDTHLSYKPKMGDKNAKVMLGQQAMPNRPNYIAFRDNFIGLMYYNSTGNMGVLAGQASQLNAVVDLQDRNTELSYQLLLDSIGDRTRYFSMWNQAVDSYDPDVRIIENHGTEDELPNYCFPLGGIGITDTFQAVKTTAANGDQGNTTWQKDSTFAERNEIGVGNNFAMEINLNANLWRNFLYSNIALYLPDKLKYNPTNVEISDNPNTYDYMNKRVVAPGLVDCYINLGARWSLDYMDNVNPFNHHRNAGLRYRSMLLGNGRYVPFHIQVPQKFFAIKNLLLLPGSYTYEWNFRKDVNMVLQSSLGNDLRVDGASIKFDSICLYATFFPMAHNTASTLEAMLRNDTNDQSFNDYLSAANMLYPIPANATNVPISIPSRNWAAFRGWAFTRLKTKETPSLGSGYDPYYTYSGSIPYLDGTFYLNHTFKKVAITFDSSVSWPGNDRLLTPNEFEIKRSVDGEGYNVAQCNMTKDWFLVQMLANYNIGYQGFYIPESYKDRMYSFFRNFQPMSRQVVDDTKYKDYQQVGIIHQHNNSGFVGYLAPTMREGQAYPANVPYPLIGKTAVDSITQKKFLCDRTLWRIPFSSNFMSMGALTDLGQNLLYANSAHALDMTFEVDPMDEPTLLYVLFEVFDVVRVHRPHRGVIETVYLRTPFSAGNATT,Kd,[5],0.42 nM
same,koff,[5],4.08e-05 s⁻¹
same,kon,[5],96600 M⁻¹ s⁻¹
same,Kd,[6],2.7 nM
same,koff,[6],0.000182 s⁻¹
same,kon,[6],67000 M⁻¹ s⁻¹
same,Kd,[7],9.9 nM
same,koff,[7],0.000575 s⁻¹
same,kon,[7],58200 M⁻¹ s⁻¹
same,Kd,[8],28 nM
same,koff,[8],0.00326 s⁻¹
same,kon,[8],116000 M⁻¹ s⁻¹
same,Kd,[9],100 nM
same,koff,[9],0.0147 s⁻¹
same,kon,[9],144000 M⁻¹ s⁻¹
same,Kd,[10],75 nM
same,koff,[10],0.00395 s⁻¹
same,kon,[10],53000 M⁻¹ s⁻¹
